Laboratory results from patent US20180194841A1 (Regeneron, published 2018).

T1: His-tagged human FcγRIIB (human, UniProt P31994 46-217, limits assumed)
T1 construct: His-tagged, captured on anti-penta-histidine chip; also called human FcyRIIB; FcRγIIB
T1 sequence (looked up): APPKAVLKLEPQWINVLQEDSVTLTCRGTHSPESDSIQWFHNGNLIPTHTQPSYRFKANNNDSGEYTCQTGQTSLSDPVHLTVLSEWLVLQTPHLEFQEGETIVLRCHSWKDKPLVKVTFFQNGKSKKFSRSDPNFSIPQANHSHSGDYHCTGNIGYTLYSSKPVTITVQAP

T2: His-tagged cynomolgus FcγRIIB (cynomolgus, UniProt A0A140HDP4 43-217)
T2 construct: His-tagged, captured on anti-penta-histidine chip; also called cyno FcyRIIB
T2 sequence: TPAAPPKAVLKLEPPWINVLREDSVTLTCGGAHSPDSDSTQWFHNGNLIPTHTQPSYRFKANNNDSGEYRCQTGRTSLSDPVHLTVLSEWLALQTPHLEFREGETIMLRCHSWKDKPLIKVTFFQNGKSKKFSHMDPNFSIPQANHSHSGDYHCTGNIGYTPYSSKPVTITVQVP

T3: His-tagged human FcγRIIA (R131) (human, UniProt P12318 36-218, limits assumed)
T3 construct: His-tagged, captured on anti-penta-histidine chip; also called human FcyRIIA (R131); FcRγIIA
T3 sequence (looked up): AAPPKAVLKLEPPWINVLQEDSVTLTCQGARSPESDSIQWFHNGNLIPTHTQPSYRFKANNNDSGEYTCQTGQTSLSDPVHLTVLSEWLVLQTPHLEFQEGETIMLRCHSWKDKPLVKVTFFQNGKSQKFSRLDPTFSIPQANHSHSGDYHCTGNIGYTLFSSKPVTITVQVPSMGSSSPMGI

T4: His-tagged human FcγRIIA (H131) (human, UniProt P12318 36-218, limits assumed)
T4 construct: His-tagged, captured on anti-penta-histidine chip; also called hFcyRIIA (H131); FcRγIIA
T4 sequence (looked up): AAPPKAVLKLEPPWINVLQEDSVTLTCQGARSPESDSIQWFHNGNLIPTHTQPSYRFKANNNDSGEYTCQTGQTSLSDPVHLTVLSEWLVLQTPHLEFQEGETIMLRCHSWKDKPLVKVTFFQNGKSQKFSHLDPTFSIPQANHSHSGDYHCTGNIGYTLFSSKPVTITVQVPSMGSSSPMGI

T5: His-tagged cynomolgus FcγRIIA (cynomolgus, UniProt A0A140HDN0 28-215)
T5 construct: His-tagged, captured on anti-penta-histidine chip; also called cyno FcyRIIA
T5 sequence: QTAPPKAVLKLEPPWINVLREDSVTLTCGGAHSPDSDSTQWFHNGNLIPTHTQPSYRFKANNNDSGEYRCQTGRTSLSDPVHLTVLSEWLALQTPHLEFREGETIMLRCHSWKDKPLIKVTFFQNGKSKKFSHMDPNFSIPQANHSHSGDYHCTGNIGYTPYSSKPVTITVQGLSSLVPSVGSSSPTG

T6: human CD20 (on Raji cells, CD3-, CD20+ human B-cell line; on B16F10.9/CD20 cells) (human, UniProt P11836 1-297)
T6 sequence (looked up): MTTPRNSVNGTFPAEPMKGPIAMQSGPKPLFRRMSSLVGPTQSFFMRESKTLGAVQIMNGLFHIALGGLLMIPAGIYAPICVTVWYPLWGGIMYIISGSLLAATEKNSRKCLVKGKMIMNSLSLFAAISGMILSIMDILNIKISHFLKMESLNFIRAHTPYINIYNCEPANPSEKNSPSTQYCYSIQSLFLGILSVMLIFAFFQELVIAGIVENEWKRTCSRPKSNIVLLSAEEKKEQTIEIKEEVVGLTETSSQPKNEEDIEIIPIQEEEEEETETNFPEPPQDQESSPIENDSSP


Columns and labels:
His-tagged human FcγRIIB = biological target: T1, His-tagged human FcγRIIB; assay: SPR steady-state, 25 C, His-tagged FcγR captured, antibody injected
Experimental: (§1) The anti-CD3×anti-CD20 bispecific antibodies having chimeric constant heavy chain regions Antibody 1 and Antibody 4 were analyzed using Surface Plasmon Resonance (SPR) (Biacore) technology to determine their kinetic binding parameters to human and cynomolgus Fcγ receptors.
(§2) Briefly, SPR experiments were performed at 25° C. on a Biacore T200 instrument employing a carboxymethyl dextran-coated (CM-5) chip. A mouse monoclonal anti-penta-histidine antibody (GE Healthcare) was immobilized on the surface of the CM-5 sensor chip using standard amine-coupling chemistry. […] Kinetic association (kₐ) and dissociation (kd) rate constants were determined by processing and fitting the data to a 1:1 binding model using Scrubber 2.0 curve fitting software. Binding dissociation equilibrium constants (KD) and dissociative half-lives (t_{1/2}) were calculated from the kinetic rate constants as: KD (M)=kd/kₐ; and t_{1/2} (min)=(ln 2/(60*kd).

[1] = biological target: T2, His-tagged cynomolgus FcγRIIB; assay: as above
Experimental: as §1, §2

[2] = biological target: T3, His-tagged human FcγRIIA (R131); assay: as above
Experimental: as §1, §2

[3] = biological target: T7, His-tagged cynomolgus FcγRIIIA (cynomolgus, UniProt Q8SPW2 17-208, limits assumed); assay: as above
T7 construct: His-tagged, captured on anti-penta-histidine chip; also called cyno FcyRIIIA
T7 sequence (Q8SPW2 17-208 limits assumed): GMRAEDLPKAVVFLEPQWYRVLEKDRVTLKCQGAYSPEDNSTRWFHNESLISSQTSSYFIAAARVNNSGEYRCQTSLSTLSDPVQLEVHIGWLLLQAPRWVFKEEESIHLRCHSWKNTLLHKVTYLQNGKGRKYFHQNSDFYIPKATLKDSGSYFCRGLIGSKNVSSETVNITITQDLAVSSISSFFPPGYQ
Experimental: as §1, §2

[4] = biological target: T4, His-tagged human FcγRIIA (H131); assay: as above
Experimental: as §1, §2

[5] = biological target: T5, His-tagged cynomolgus FcγRIIA; assay: as above
Experimental: as §1, §2

[6] = biological target: T6, human CD20 (on Raji cells, CD3-, CD20+ …); assay: cell-based or functional assay
[7] = biological target: T6, human CD20 (on Raji cells, CD3-, CD20+ …); assay: cell-based or functional assay; remark: listed apart in the source

Binder | Kd (His-tagged human FcγRIIB) [µM] | Kd [1] [µM] | Kd [2] [µM] | Kd [3] [µM] | Kd [4] [µM] | Kd [5] [µM] | % Survival B16F10.9/CD20 cells [M] (EC50, FACS, naive human PBMC effectors, 48 h) [6] | Raji Cytotoxicity Activated Human T-cells [M] (EC50, calcein release) [7] | Raji Cytotoxicity Activated Monkey T-cells [M] (EC50, calcein release) [7]
Antibody 1 (CD3×CD20-chimericFc bispecific antibody) (bispecific antibody, also called Ab 1; Ab1) heavy 1: EVQLVESGGGLVQPGRSLRLSCVASGFTFNDYAMHWVRQAPGKGLEWVSVISWNSDSIGYADSVKGRFTISRDNAKNSLYLQMHSLRAEDTALYYCAKDNHYGSGSYYYYQYGMDVWGQGTTVTVSSASTKGPSVFPLAPCSRSTSESTAALGCLVKDYFPEPVTVSWNSGALTSGVHTFPAVLQSSGLYSLSSVVTVPSSSLGTKTYTCNVDHKPSNTKVDKRVESKYGPPCPPCPAPPVAGPSVFLFPPKPKDTLMISRTPEVTCVVVDVSQEDPEVQFNWYVDGVEVHNAKTKPREEQFNSTYRVVSVLTVLHQDWLNGKEYKCKVSNKGLPSSIEKTISKAKGQPREPQVYTLPPSQEEMTKNQVSLTCLVKGFYPSDIAVEWESNGQPENNYKTTPPVLDSDGSFFLYSRLTVDKSRWQEGNVFSCSVMHEALHNHYTQKSLSLSLGK heavy 2: EVQLVESGGGLVQPGRSLRLSCAASGFTFDDYTMHWVRQAPGKGLEWVSGISWNSGSIGYADSVKGRFTISRDNAKKSLYLQMNSLRAEDTALYYCAKDNSGYGHYYYGMDVWGQGTTVTVASASTKGPSVFPLAPCSRSTSESTAALGCLVKDYFPEPVTVSWNSGALTSGVHTFPAVLQSSGLYSLSSVVTVPSSSLGTKTYTCNVDHKPSNTKVDKRVESKYGPPCPPCPAPPVAGPSVFLFPPKPKDTLMISRTPEVTCVVVDVSQEDPEVQFNWYVDGVEVHNAKTKPREEQFNSTYRVVSVLTVLHQDWLNGKEYKCKVSNKGLPSSIEKTISKAKGQPREPQVYTLPPSQEEMTKNQVSLTCLVKGFYPSDIAVEWESNGQPENNYKTTPPVLDSDGSFFLYSRLTVDKSRWQEGNVFSCSVMHEALHNRFTQKSLSLSLGK light: not shown | 123 | 13.9 | 19.3 | 66.3 | 12 | 23.1 | 1.95e-11 | 2.5e-11 | 9.1e-12
Antibody 2 (CD3×CD20-chimericFc bispecific antibody) (bispecific antibody, also called Ab 2) heavy 1: EVQLVESGGGLVQPGRSLRLSCVASGFTFNDYAMHWVRQAPGKGLEWVSVISWNSDSIGYADSVKGRFTISRDNAKNSLYLQMHSLRAEDTALYYCAKDNHYGSGSYYYYQYGMDVWGQGTTVTVSSASTKGPSVFPLAPSSKSTSGGTAALGCLVKDYFPEPVTVSWNSGALTSGVHTFPAVLQSSGLYSLSSVVTVPSSSLGTQTYICNVNHKPSNTKVDKKVEPKSCDKTHTCPPCPAPPVAGPSVFLFPPKPKDTLMISRTPEVTCVVVDVSQEDPEVQFNWYVDGVEVHNAKTKPREEQFNSTYRVVSVLTVLHQDWLNGKEYKCKVSNKGLPSSIEKTISKAKGQPREPQVYTLPPSRDELTKNQVSLTCLVKGFYPSDIAVEWESNGQPENNYKTTPPVLDSDGSFFLYSKLTVDKSRWQQGNVFSCSVMHEALHNHYTQKSLSLSPGK heavy 2: EVQLVESGGGLVQPGRSLRLSCAASGFTFDDYTMHWVRQAPGKGLEWVSGISWNSGSIGYADSVKGRFTISRDNAKKSLYLQMNSLRAEDTALYYCAKDNSGYGHYYYGMDVWGQGTTVTVASASTKGPSVFPLAPSSKSTSGGTAALGCLVKDYFPEPVTVSWNSGALTSGVHTFPAVLQSSGLYSLSSVVTVPSSSLGTQTYICNVNHKPSNTKVDKKVEPKSCDKTHTCPPCPAPPVAGPSVFLFPPKPKDTLMISRTPEVTCVVVDVSQEDPEVQFNWYVDGVEVHNAKTKPREEQFNSTYRVVSVLTVLHQDWLNGKEYKCKVSNKGLPSSIEKTISKAKGQPREPQVYTLPPSRDELTKNQVSLTCLVKGFYPSDIAVEWESNGQPENNYKTTPPVLDSDGSFFLYSKLTVDKSRWQQGNVFSCSVMHEALHNRFTQKSLSLSPGK light: not shown | 233 | 14.6 | 20.5 | 42.4 | 11.7 | 23.5 |  |  | 
